Assay: yeast display, Sf9 membrane polyspecificity reagent, FACS + sequencing; frameworks hold sequencing errors
Method in brief: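 Galactose-induced (36–48 hours) yeast carrying a synthetic nanobody display library were exposed to 10% biotinylated, detergent-solubilized Sf9 membrane reagent at 4 °C for 1 hour. FACS followed streptavidin microbead enrichment, using low and high (top ~1%) gates for expression (anti-HA) and reagent binding (streptavidin). Colony PCR, MiSeq 2 × 250 sequencing and CDR-length filtering followed. Labels for polyreactivity reflect the gate of origin.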

Sequence | polyreactivity (PSR sort gate)
QVQLVESGGGLVQAGGSLRISCAASGRIFKVYAMGWYRQAPGKERELVAAMSRSGGSTYYADSVKGRFTISRDNAKKTVYFQMNSLKPEDTAVYYCHAYFVYGHACGYDYWGQGSQVTVSS | high polyreactivity
QVQLVESGGGLVQAGGSLRISCAASGRIFLFYAMGWYRQAPGKEREWVAAITYSGSTYYADSVKGRFTISRDNAKNTVYLQMNSLIPEDTAVYYCNARYRTYAGTYGYNYWGQGTQVTVSS | high polyreactivity
QVQLVESGGGLVQAGGSLRISCAASGRIFRQNTMGWYRQAPGKERELVAAISRSGGSTYYADSVKGRFTISRENAKNTVYLQMNSLKPEDTAVYYCNKVTYIVAIWGSDIYVPSEFGYWGQGTQVTVSS | high polyreactivity
QVQLVESGGGLVQAGGSLRISCAASGRIFRYYAMGWYRQAPGKERELVAAISNSGGRTYYADSVKRRFTISRDNAKNSVYLQMNSLKPEDTAVYYCKKAHSYRGVSDSDMGYWGQGTEVTVSS | high polyreactivity
QVQLVESGGGLVQAGGSLRISCAASGRIFVVYVMGWYRQAPGKEREFVAAITWGGGNTYYADSVKGRFTISRDNAKNTVYLQMNSLKPEDTAVYYCNAVWYWGDMDYWGQGTQVTVSS | low polyreactivity
QVQLVESGGGLVQAGGSLRISCAASGRIYPVYVMGWYRQAPGKERELVAAINYNGGSTTYADSVKGRFTISRDNAKNTVYLQMNSLKPADTAVYYCAAGTPAYVETEYEYWGQGTQVTVSS | low polyreactivity
QVQLVESGGGLVQAGGSLRISCAASGRNFPNYAMGWYRQAPGKERELVAAITSSGGSTYYADSVKGRFTISRDNAKNTVYLQMNSLKPEDTAVYYCNAGSWIRNDYWGQGTQVTVSS | high polyreactivity
QVQLVESGGGLVQAGGSLRISCAASGRSFWTYAMGWYRQAPGKERELVAAITWRGGSTSYADSVTGRFTISRDTAKNTVYLQMHSLKPEDTAVYYCAADTYSYLRGTYEYDYWGQGTQVTVSS | high polyreactivity
QVQLVESGGGLVQAGGSLRISCAASGRTFGSYSMGWYRQAPGNEREEVAAISLSAGSTYYADYVKGRFTISRDNAKNTVYLQMNRLKAEDTAVYYCAAGTKWYSQVYIYFYWGQGTQVTVSS | low polyreactivity
QVQLVESGGGLVQAGGSLRISCAASGRTFLKNTMGRYRQAPGKERELVAVITRNGDSTYADSVKGRFTISRDNAKNTVYLQMNSLKPEDTAVYYCATTYRDGVYELTTFDYWGQGTQVTVSS | low polyreactivity
QVQLVESGGGLVQAGGSLRISCAASGRTFPRYAMGWYRQAPGKERELVAGISWSGGRTYYADSVKGRFTISRDNAKNTVYLQMNSLKPEDTAVYYCAVVSKNLSYRTTFYYWGQGTQVTVSS | high polyreactivity
QVQLVESGGGLVQAGGSLRISCAASGRTFRVYSMGWYIQAPGKEWELVASISARSGSTYYADSVKGRFTISRDNAKNTVYLQLNSVKPEDTAVYYSAAARRGFKYDYWGQGTQVTVSS | high polyreactivity
QVQLVESGGGLVQAGGSLRISCAASGRTFVVYAMGWYRPAPGKERELVAAIRGSGGSTNYADSVKGRFTISRDNAKNTVYLQMNSLKPEDTAVYYCAATSSLGDFRYDYWGQGTQVTVSS | high polyreactivity
QVQLVESGGGLVQAGGSLRISCAASGRTFYTYDMGWYRQAPGKERQLVAAISSSGSTYYADSVKGRFTISRDNAKNTVYLQMNSLKPEDTAGYYCNARTSRYRRGGDSWGQGTQVTVSS | high polyreactivity
QVQLVESGGGLVQAGGSLRISCAASGSIFARYAMGWYRQAPGKERELVAAISKRGGSTYYADSVKGRFTISRDNAKNTVYLQMNSLKPEDTAVYYCAAVSYPPYTTKMDYWGQGTLVTVSS | high polyreactivity
QVQLVESGGGLVQAGGSLRISCAASGSIFDPYAMGWYRQAPGKERELVAAITSGGSTYYADSVKGRFTISRDNAKNTVYLQMNSLIPEDTAVYYCAKDFDIYYSKYDYWGQGTQVTVSS | low polyreactivity
QVQLVESGGGLVQAGGSLRISCAASGSIFGLYAMGWYRQAPGKERELVAAINQSGGSTSYADSVKGRFTISRDNAKNTVYLQMNSLKPEDTAVYYCNRVRLNSEGFDYWGQGTQVTVSS | low polyreactivity
QVQLVESGGGLVQAGGSLRISCAASGSIFGYAMACYRQGPGKERELVAAITSSGGSTYYADSVKGRFTISRDNAKNTVYLHKNSLKPEDTAGYYCNAYLRWYITLLRFLAGGDYWGQGYQVTVSS | high polyreactivity
QVQLVESGGGLVQAGGSLRISCAASGSIFGYYAMGWYRHSPGTERELVAAISWSDGSTYYADSVKGRFTISRDNAKNTVYLQMNSLKPEDTAVYYCAARFTPYITSDDGHYDYWGQGTQVTVSS | low polyreactivity
QVQLVESGGGLVQAGGSLRISCAASGSIFKKYAMGWYIQAPGKEREFVAAITRGTYYADSVKGRFTISRDNAKNTVYLQMNSLKPEDTAVYDCYREYWGRGYYRVRGEYDYWGQGTQVTVSS | low polyreactivity
QVQLVESGGGLVQAGGSLRISCAASGSIFSWKDMGWYRQAPGKERELVAAITSGGSTYYADSVKGRFTISRDNAKNTVYLQMNSLKPEDTAVYYCAAVFLLFGFEWSYDYWGQGTQVTVTS | low polyreactivity
QVQLVESGGGLVQAGGSLRISCAASGSIFVKNAMGWYRQAPGKEREFVAAITTSGGSTNYADSVKGRFTISRDNAKNTVYLQMNSLKPEDTAVYYCNTDIFPAAYDYWGQGTQVTVSS | low polyreactivity

Reference: the nanobody polyreactivity screen of Harvey et al. (2022)
